Assay results: patent US8765444 (BOARD OF TRUSTEES OF THE UNIVERSITY OF ILLINOIS, dated 2014)

B1: FLAG-γ134.5 Δ106 (other)
chain: MARRRRHRGPRRPRPPGPTGAVPTAQSQVTSTPNSEPAVRSAPAAAPPPPPASGPPPSCSLLLRQWLHVPEPPGAGPGGGANPSHPPSRPFRLPPRLALRLRVTAEHLARLRLRRAGGEGAPEPPATPATPATPATPATPATPATPATPATPATPARVRFSPHVRVRHLVVWASAARLARRGSWARERADRARFRRRVAEAEAVIGPCLGPEARARALARGAGPANSV
notes: the printed limits overlap with the neighbouring deletions, so the exact junction is uncertain
B2: FLAG-dN200, a truncated form of Ebola VP35 (other)
chain: NNLNSTTSLTEENFGKPDISAKDLRNIMYDHLPGFGTAFHQLVQVICKLGKDSNSLDIIHAEFQASLAEGDSPQCALIQITKRVPIFQDAAPPVIHIRSRGDIPRACQKSLRPVPPSPKIDRGWVCVFQLQDGKTLGLKI
notes: also called control protein dN200

Columns and labels:
[1] = target: T1, TBK1 (as used in Example 6; construct not named) (Homo sapiens (Human), UniProt Q9UHD2 1-729); experiment: co-immunoprecipitation from transfected 293T cells
T1 construct: also called HA-TBK1 (constructed, probably the one used)
T1 sequence: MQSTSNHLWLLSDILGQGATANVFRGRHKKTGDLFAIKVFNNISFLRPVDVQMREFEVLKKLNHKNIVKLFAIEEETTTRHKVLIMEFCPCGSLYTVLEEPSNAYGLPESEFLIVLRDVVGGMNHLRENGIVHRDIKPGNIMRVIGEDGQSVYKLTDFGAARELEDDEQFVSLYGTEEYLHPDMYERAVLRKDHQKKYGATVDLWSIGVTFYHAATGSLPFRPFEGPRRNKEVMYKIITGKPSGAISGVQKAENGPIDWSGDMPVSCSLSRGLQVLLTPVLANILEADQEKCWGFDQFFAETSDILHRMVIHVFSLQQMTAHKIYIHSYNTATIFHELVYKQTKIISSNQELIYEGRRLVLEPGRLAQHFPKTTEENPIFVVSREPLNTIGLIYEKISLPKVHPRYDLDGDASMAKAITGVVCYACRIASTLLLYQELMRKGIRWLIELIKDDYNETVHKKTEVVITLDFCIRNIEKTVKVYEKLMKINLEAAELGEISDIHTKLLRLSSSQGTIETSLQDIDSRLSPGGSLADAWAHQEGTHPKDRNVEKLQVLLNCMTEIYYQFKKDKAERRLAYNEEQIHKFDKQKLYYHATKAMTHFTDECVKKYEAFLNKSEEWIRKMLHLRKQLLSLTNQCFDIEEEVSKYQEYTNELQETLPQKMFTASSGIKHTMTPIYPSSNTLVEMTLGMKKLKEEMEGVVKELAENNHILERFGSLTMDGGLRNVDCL

[2] = target: T2, HA-γ134.5 (HSV-1, UniProt P08353 1-263); experiment: co-immunoprecipitation from transfected 293T cells
T2 sequence: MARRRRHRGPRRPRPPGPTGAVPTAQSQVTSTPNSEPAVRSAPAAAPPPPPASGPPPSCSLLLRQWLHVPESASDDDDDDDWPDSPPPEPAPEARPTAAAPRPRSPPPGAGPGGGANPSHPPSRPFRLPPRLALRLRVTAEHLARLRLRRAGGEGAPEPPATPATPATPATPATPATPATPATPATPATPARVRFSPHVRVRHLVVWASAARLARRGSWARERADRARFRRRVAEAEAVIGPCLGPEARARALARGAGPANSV

Binder | binding result [1] | binding result [2]
B1 | no binding | –
B2 | – | no binding
